Measured values reported in patent US7935343B2.

Key:
[1] = target: human IL-13 (human)
[2] = target: human IL-13 (human); remark: listed apart in the source
[3] = target: native human IL-13 released from HDLM-2 cells (human)
[4] = target: human IL-13 variant (Q130R) with carboxyl terminus affinity tag (baculovirus expression) (human)
[5] = target: non-human primate IL-13 (rhesus and cynomolgus, identical) with carboxyl terminus affinity tag (cynomolgus and rhesus monkey)
non-human primate IL-13 (rhesus and cynomolgus, identical) with carboxyl terminus affinity tag (cynomolgus and rhesus monkey), sequence (chain, as listed by the source): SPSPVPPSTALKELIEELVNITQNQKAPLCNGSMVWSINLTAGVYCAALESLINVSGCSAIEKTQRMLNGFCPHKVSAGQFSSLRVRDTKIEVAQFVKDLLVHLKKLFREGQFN

human IL-13 variant (Q130R) with carboxyl terminus affinity tag (baculovirus expression) (human), sequence (chain, as listed by the source Q130R Q130R): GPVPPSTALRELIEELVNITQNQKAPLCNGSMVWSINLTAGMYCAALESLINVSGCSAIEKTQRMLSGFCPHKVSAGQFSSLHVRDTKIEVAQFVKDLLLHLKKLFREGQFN

IC50, eotaxin release from NHLF [1] [nM] | IC50, TF-1 proliferation [2] [nM] | IC50, HDLM-2 cell proliferation [3] [nM] | IC50, TF-1 cell proliferation [4] [nM] | IC50, TF-1 cell proliferation [5] [nM] | Substance
0.219 | 1.02 | 16.7 |  |  | B-B13 (mouse IgG1, Euroclone) (antibody)
 |  |  | 1.9 | 2 | BAK502G9 IgG4 (antibody)
0.623 | 0.471 | 10.7 |  |  | JES10-5A2 (rat IgG1, Biosource) (antibody)
